Laboratory results from patent publication US20230212319A1, “NOVEL ANTIGEN BINDING DOMAINS AND SYNTHETIC ANTIGEN RECEPTORS INCORPORATING THE SAME” (University of Southern California, priority 2020, published 2023).

B1: SEQ ID NO: 22287: NKG2D-YA-G4Sx3-NKG2D-YA domain attached to the hu-mROO5-1 vH fragment of an Ab-TCR via a G4S linker (protein)
chain: MALPVTALLLPLALLLHAARPACEVQLLESGGGLIQPGGSLRLSCAASGFTFSSHAMTWVRQAPGKGLEWVSAISGSGDYTHYADSVKGRFTISRDNSKNTVYLQMNSLRAEDSAVYYCAKDEDGGSLLGHRGQGTLVTVSSGTGGGGSGGGGSGGGGSEFDIQMTQSPSSLSASVGDRVTITCKASDHINNWLAWYQQKPGQAPKLLIYGATTLETGVPSRFSGSGSGTDYTLTISSLQPEDFATYYCQQSWNTPWTFGQGTKLEIKRLEGQPKANPTVTLFPPSSEELQANKATLVCLISDFYPGAVTVAWKADGSPVKAGVETTKPSKQSNNKYAASSYLSLTPEQWKSHRSYSCQVTHEGSTVEKTVAPTECSGRADCGFTSESYQQGVLSATILYEILLGKATLYAVLVSALVLMAMVKRKDSRGRAKRSGSGATNFSLLKQAGDVEENPGPTSTMDWIWRILFLVGAATGAHSLFNQEVQIPLTESYCGPCPKNWICYKNNCYQFFDESKNWYESQASCMSQNASLLKVYSKEDQDLLKLVKSAHWMGLVHIPTNGSWQWEDGSILSPNLLTIIEMQKGDCALYASSFKGYIENCSTPNTYICMQRTVSGGGGSGGGGSGGGGDLFNQEVQIPLTESYCGPCPKNWICYKNNCYQFFDESKNWYESQASCMSQNASLLKVYSKEDQDLLKLVKSAHWMGLVHIPTNGSWQWEDGSILSPNLLTIIEMQKGDCALYASSFKGYIENCSTPNTYICMQRTVGSGGGGSGGGGSGGGGSFEQVQLQQPGAELVKPGASVKMSCKASGYAFSSYWINWMKQKPGQGLEWIGQIYPGDGDTNYNGKFKGRATLTADTSSSTAYMQLSSLTSEDSAVYFCARSITTVVGCAMDYWGQGTSVTVSSTRASTKGPSVFPLAPSSKSTSGGTAALGCLVKDYFPEPVTVSWNSGALTSGVHTFPAVLQSSGLYSLSSVVTVPSSSLGTQTYICNVNHKPSNTKVDKRVEPKSCIPEDTFFPSPESSCDVKLVEKSFETDTNLNFQNLSVIGFRILLLKVAGFNLLMTLRLWSSRAKRSGSGVKQTLNFDLLKLAGDVESNPGPSRGHMTEYKPTVRLATRDDVPRAVRTLAAAFADYPATRHTVDPDRHIERVTELQELFLTRVGLDIGKVWVADDGAAVAVWTTPESVEAGAVFAEIGPRMAELSGSRLAAQQQMEGLLAPHRPKEPAWFLATVGVSPDHQGKGLGSAVVLPGVEAAERAGVPAFLETSAPRNLPFYERLGFTVTADVEVPEGPRTWCMTRKPGA
B2: 22294 (protein)
chain: MALPVTALLLPLALLLHAARPQLQLQESGPGLVKPSETLSLTCTVSGDSISSGDYYWGWIRQPPGKGLEWIGHIYYSGVTYYNPSLKSRVTISVDTSRNQFSLKLSSVTAADTAVYYCTREDSSNWRSRGQGTLVTVSSLEGSIPEDTFFPSPESSCDVKLVEKSFETDTNLNFQNLSVIGFRILLLKVAGFNLLMTLRLWSSRAKRSGSGVKQTLNFDLLKLAGDVESNPGPTSATMDWIWRILFLVGAATGAHSEFMDPDLEIRAAFLRQRNTALRTEVAELEQEVQRLENEVSQYETRYGPLGGGKTRGSGRADCGFTSESYQQGVLSATILYEILLGKATLYAVLVSALVLMAMVKRKDSRGRAKRSGSGATNFSLLKQAGDVEENPGPSRGHMTEYKPTVRLATRDDVPRAVRTLAAAFADYPATRHTVDPDRHIERVTELQELFLTRVGLDIGKVWVADDGAAVAVWTTPESVEAGAVFAEIGPRMAELSGSRLAAQQQMEGLLAPHRPKEPAWFLATVGVSPDHQGKGLGSAVVLPGVEAAERAGVPAFLETSAPRNLPFYERLGFTVTADVEVPEGPRTWCMTRKPGA
B3: CD8SP-CD22-FHVH-24-PSMA71v2-chVH-Myc-CD8TM-BBZ-T2A-PAC (protein)
chain: MALPVTALLLPLALLLHAARPQLQLQESGPGLVKPSETLSLTCTVSGDSISSGDYYWGWIRQPPGKGLEWIGHIYYSGVTYYNPSLKSRVTISVDTSRNQFSLKLSSVTAADTAVYYCTREDSSNWRSRGQGTLVTVSSLESGGGGSFEVQLVESGGGVVQPGRSLRLSCAASGFSFSGYGMHWVRQAPGKGLEWVAYISYDGSNKYYADSVKGRFTISRDNSKNTLYLQMNSLRAEDTAVYYCAKDPAWGLRLGESSSYDFDIWGQGTMVTVSSTREQKLISEEDLAKPTTTPAPRPPTPAPTIASQPLSLRPEACRPAAGGAVHTRGLDFACDIYIWAPLAGTCGVLLLSLVITLYCKRGRKKLLYIFKQPFMRPVQTTQEEDGCSCRFPEEEEGGCELRVKFSRSADAPAYQQGQNQLYNELNLGRREEYDVLDKRRGRDPEMGGKPRRKNPQEGLYNELQKDKMAEAYSEIGMKGERRRGKGHDGLYQGLSTATKDTYDALHMQALPPRSSGSGEGRGSLLTCGDVEENPGPHMTEYKPTVRLATRDDVPRAVRTLAAAFADYPATRHTVDPDRHIERVTELQELFLTRVGLDIGKVWVADDGAAVAVWTTPESVEAGAVFAEIGPRMAELSGSRLAAQQQMEGLLAPHRPKEPAWFLATVGVSPDHQGKGLGSAVVLPGVEAAERAGVPAFLETSAPRNLPFYERLGFTVTADVEVPEGPRTWCMTRKPGA
B4: SEQ ID NO: 22286: engineered NKG2D-YA domain attached to the N-terminus of the IgCL fragment of a SAR with Ab-TCR backbone (protein)
chain: MALPVTALLLPLALLLHAARPACLFNQEVQIPLTESYCGPCPKNWICYKNNCYQFFDESKNWYESQASCMSQNASLLKVYSKEDQDLLKLVKSAHWMGLVHIPTNGSWQWEDGSILSPNLLTIIEMQKGDCALYASSFKGYIENCSTPNTYICMQRTVLEGQPKANPTVTLFPPSSEELQANKATLVCLISDFYPGAVTVAWKADGSPVKAGVETTKPSKQSNNKYAASSYLSLTPEQWKSHRSYSCQVTHEGSTVEKTVAPTECSPIKTDVITMDPKDNCSKDANDTLLLQLTNTSAYYMYLLLLLKSVVYFAIITCCLLRRTAFCCNGEKSRAKRSGSGATNFSLLKQAGDVEENPGPTSATMDWIWRILFLVGAATGAHSGPQVQLQESGGGLAQAGGSLRLSCAASGRTFSMGWFRQAPGKEREFVAAITYSGGSPYYASSVRGRFTISRDNAKNTVYLQMNSLKPEDTAVYYCAANPTYGSDWNAENWGQGTQVTVSSGSGGGGSGGGGSGGGGSFEQVQLQQPGAELVKPGASVKMSCKASGYAFSSYWINWMKQKPGQGLEWIGQIYPGDGDTNYNGKFKGRATLTADTSSSTAYMQLSSLTSEDSAVYFCARSITTVVGCAMDYWGQGTSVTVSSTRASTKGPSVFPLAPSSKSTSGGTAALGCLVKDYFPEPVTVSWNSGALTSGVHTFPAVLQSSGLYSLSSVVTVPSSSLGTQTYICNVNHKPSNTKVDKRVEPKSCEVKTDSTDHVKPKETENTKQPSKSCHKPKAIVHTEKVNMMSLTVLGLRMLFAKTVAVNFLLTAKLFFLRAKRSGSGVKQTLNFDLLKLAGDVESNPGPSRGHMTEYKPTVRLATRDDVPRAVRTLAAAFADYPATRHTVDPDRHIERVTELQELFLTRVGLDIGKVWVADDGAAVAVWTTPESVEAGAVFAEIGPRMAELSGSRLAAQQQMEGLLAPHRPKEPAWFLATVGVSPDHQGKGLGSAVVLPGVEAAERAGVPAFLETSAPRNLPFYERLGFTVTADVEVPEGPRTWCMTRKPGA

Columns and labels:
LNCaP cells = test: JNG assay, co-culture with LNCaP cells; assay type: cell-based; settings: for GFP induction: LNCaP cells, only in the presence of SAR-adaptor PSMA-USC76-chVH-G4S-ULBP2-S3 (SEQ ID NO: 23114)
Protocol: Cellular supernatant is collected and assayed for the induction of cytokines (e.g., IL2).
JNG (Jurkat cells expressing EGFP under an NFAT promoter) were infected with lentiviral vectors encoding different single chain and multi-chain SARs by spinfection in the presence of 8 µg/ml of Polybrene® (Sigma, Catalog no. H9268). The Jurkat-NFAT-GFP cells are engineered in such a way that the IL-2 promoter, which carries NFAT binding sites, is cloned upstream of the GFP gene. These cells have been used to study signaling via TCR and CAR. The different SARs were stably expressed in Jurkat NFAT-GFP cells by lentiviral mediated gene transfer, followed by selection with puromycin or blasticidin. No drug selection was used in case the construct lacked an antibiotic resistance gene. The SAR-expressing Jurkat-NFAT-GFP cells were cocultured with the target cells at E:T ratio of approximately 1:2 for approximately 4 hours to 18 hours. When the interaction between SIRs and their target antigen results in activation of the NFAT pathway, GFP expression is induced. […] GFP expression was monitored by FACS analysis. The Jurkat-NFAT-GFP (parental) cells were used as control. The structure of different constructs can be determined based on their names. For example, the construct CD8SP-CD19-hu-mROO5-1-vL-[hTCRa-C SDVP]-F-F2A-Spe-IgHSP-Apa-CD20-vHH-2HCD25-G4S-CDl9-hu-mROO5-1-vH-Mlu-[hTCRb-KACIAH]-F-P2A-PAC has the following modules from 5′ to 3′ direction: a CD8 signal peptide (CD8SP), the CD19 targeting hu-mROO5-1 vL fragment (CD19-hu-mROO5-1), Xho1 cloning site, human TCRa constant chain containing CSDVP mutations (hTCRa-CSDVP), Furine cleavage site (F), F2A ribosomal skip sequence (F2A), SpeI site, human IgH signal peptide (IgHSP), Apa I restriction enzyme site, camelid CD20-2HCD25-VHH module targeting CD20, BamHI restriction enzyme site, Glycinex4-serine linker (G4S), BstI restriction enzyme site, CD19-hu-mROO5-1-vH fragment targeting CD19, Mlu I restriction enzyme site, human TCRb constant chain containing KACIAH mutations ([hTCRb-KACIAH]), Furine cleavage site (F), P2A ribosomal skip sequence and Puromycin resistance gene (PAC). The sequence of the other constructs in the table can be similarly determined from their names and by referring to the different Tables of this disclosure that provide the names and SEQ ID NO of the different modules. Alternatively, the composition and modular architecture of the different SAR constructs can be determined from their sequences by bioinformatics tools, including using nucleic acid and amino acids homology searches. A SAR is considered positive in the assay in case the SAR expressing Jurkat-NFAT-GFP cells show greater % GFP positive cells when cultured with the target cell line as compared to parental Jurkat-NFAT-GFP cells. The signs +/-, +, 2+ etc. after the name of the cell lines indicate the relative degree of positivity on the Jurkat-NFAT-GFP assay as measured by the % GFP positive cells after culture of the SAR expressing Jurkat-NFAT-GFP cells with that cell line above the % GFP cells observed in parental Jurkat NFAT-GFP cells serving as controls. In general, the number +/-, +, 2+, 3+, 4+, 5+ refer to approximately 5%, 10%, 20%, 30%, 40% and 50% GFP positive cells. The % of GFP induction in the above assay is dependent not only the relative strength of the SAR but also, among other factors, on the relative level of expression of the SAR in the JNG cells and the relative level of expression of the target antigen in the target cell line. To control for the difference in gene transduction efficiency of the different SAR constructs, the experiment was conducted with JNG cells transduced with SAR constructs co-expressing a drug resistance gene (e.g., puromycin or PAC) followed by drug selection to generate a stable population of SAR-expressing cells. […]

RAJI cells = test: JNG assay, co-culture with RAJI cells; assay type: cell-based; settings: co-culture with RAJI cells
Outline: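 Read-out is NFAT-driven GFP measured by flow cytometry after ~4–18 h co-culture of SAR-expressing JNG cells with target cells (E:T about 1:2). SARs were introduced by lentiviral spinfection and selected with puromycin or blasticidin when possible; scores (+/- to 5+ ≈ 5–50% GFP+) are relative to parental JNG cells.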

Row | Molecule | GFP induction (LNCaP cells) | GFP induction / activity (RAJI cells) | NFAT-GFP ASSAY: LNCaP with PSMA-USC76-chVH-EZIP (LNCaP cells; LNCaP in presence of SAR adaptor PSMA-USC76-chVH-EZIP) | GFP induction (relative degree of positivity) (LNCaP cells; PSMA-expressing LNCaP cells)
1 | B1 | induction of GFP | robust induction of GFP |  | 
2 | B2 |  |  | +1 | 
3 | B3 |  | able to effectively induce GFP |  | +5.5
4 | B4 | induction of GFP | robust induction of GFP |  | 
